For test [1], the system named is IPFP-MSC from OA patients. Description: Alcian blue staining of chondrogenic pellets (GAG), IPFP-MSC. To be noted: IPFP-MSC during chondrogenesis, day 3. Format: cell-based, human. Here is the method:
(§1) The GSE140861 microarray database was used for analyzing the potential genes from human bone marrow cells at different time points during chondrogenesis. Whole-genome expression analysis was carried out using Illumina (CA) Human Ref-8v3 or Human HT-12 v4 BeadArrays™. It was first selected the secreted protein from this database and further verified the functions of the candidate genes. The numbers of significant differences in gene expressions of different time points from human bone marrow stem cells during chondrogenesis. […] Alcian blue staining analyzed the chondrogenic differentiation of pellets with varying ratios of IPFP-MSC. CXCL14 increased the GAG deposition in IPFP-MSC during chondrogenesis on day 3. FIG. 1C provides the fluorescence confocal microscopy images showing IPFP-MSC spheroids from OA patients treated with CXCL14 for 7 days; wherein the nuclei were stained with DAPI (blue), and merged images display SOX9 (red), type II collagen (green), and aggrecan (light blue) labeling. […] The chondrogenic progenitor cells in the human IPFP-MSC from OA patients were detected using SOX9 and Collagen type II biomarkers. MSCs were assessed by flow cytometry for SOX9 and Collagen type II biomarkers indicative of human MSCs on day 1. In addition, Alcian blue staining analyzed the chondrogenic differentiation of pellets with IPFP-MSC. […]

Test [2] concerns tibial articular cartilage of WT mice after ACLT. Briefly: ACLT-induced OA mouse model, Safranin O / collagen II staining and OARSI score (CXCL14 protein). To be noted: for OARSI score: ACLT group 5.5, sham group 0.17. Format: in vivo.
Test [3] has as its system IPFP-MSC spheroids from OA patients. Briefly: Fluorescence confocal microscopy of IPFP-MSC spheroids (SOX9, type II collagen, aggrecan). Format: cell-based, human. Particulars: MSC spheroids during chondrogenesis, 7 days. Here is the method: as §1
The test system of a further test is ADSC spheroids. Description: Immunofluorescence / confocal microscopy of chondrogenic proteins in ADSC spheroids. Format: cell-based, human. Particulars: ADSC spheroids, 7 days. Here is the method: Both side views (observed in the x and z plane) and bottom views (observed in the […]) of the images are provided. The scale bar is set at 500 μm.
ADSCs were treated with CXCL14-P, CXCL14-P1, or CXCL14-P2, respectively, at a concentration of 10 ng for 24 hours, after which the medium was replaced with fresh peptide-free medium. On day 7, total RNA was extracted, and real-time PCR analysis was performed to assess the expression levels of key chondrogenic markers, including ACAN, COL2A1, SOX9, and COMP. Gene expression levels were quantified using a LightCycler system (Roche Applied Science), with fold changes calculated relative to untreated control ADSCs. […] Immunofluorescence staining was performed to detect Collagen Type II, SOX9, COMP, and nuclei (Hoechst 33342) in 3D ADSC spheroids (middle panel).
(FIG. 3). […] Moreover, fluorescence confocal microscopy was employed to detect protein patterns and confirm the levels of SOX9, type II collagen, and aggrecan proteins in ADSC spheroids. […] Finally, to investigate whether the CXCR4 receptor of CXCL12/CXCL14 confers chondrogenic signaling during chondrogenesis, we treated ADSCs with a CXCR4 agonist for 7 days.
Extracellular vesicles (EVs) derived from MSCs hold significant potential for repairing damaged tissues. In this study, we explored whether EVs from ADSCs could effectively enhance chondrogenesis and promote cartilage repair. Immunofluorescence staining was used to assess protein levels of Collagen Type II (green), SOX9 (red), COMP (indigo), and Hoechst 33342 (gray) in 3D ADSC spheroids treated with MSC-EVs derived from CXCL14 peptide-primed ADSCs (CXCL14-P-MSC-EVs) at various time points. […] To further explore the cartilage repair functions of EVs from CXCL14-P-treated ADSCs and the encapsulation of the transcription factor SOX9 within MSCs and purified EVs, we performed in vivo studies.

The results in this text go back to patent US20250312416A1, “METHOD AND PHARMACEUTICAL COMPOSITION FOR CARTILAGE REGENERATION” (FAR EASTERN MEMORIAL HOSPITAL, priority 2024, published 2025).

B1: CXCL14: small cytokine belonging to the CXC chemokine family, also known as BRAK; used as recombinant protein (protein, UniProt O95715 35-111, looked up)
C-X-C motif chemokine 14: SKCKCSRKGPKIRYSDVKKLEMKPKYPHCEEKMVIITTKSVSRYRGQEHCLHPKLQSTKRFIKWYNAWNEKRRVYEE
With B1, the “GAG deposition (Alcian blue)” value in test [1] was “increased”. Further, the OARSI score stood at 2.7 in test [2] (CXCL14 10 ng) and 1 in test [2] (CXCL14 20 ng). In addition, the “cartilage repair (staining GAG content and type II collagen)” value in test [2] (dose-dependent, ACLT-induced OA) is “can stimulate cartilage repair”. Besides, the “levels of SOX9, type II collagen, and aggrecan” value in test [3] was “elevated levels”. Further, in the test on ADSC spheroids, the “expression of SOX9, type II collagen, and aggrecan” value is “notably induced”.
